Source: patent publication US20170101454A1 (Novo Nordisk, published 2017)
Starred links: 1 amine or outer side, 2 acyl side, 3 side chain; linkers in the order of their positions; H or OH if unused. Non-standard residues stand in square brackets, D forms with d. Groups on a side chain read outwards from the residue. No end group written: not given here. *: point of attachment. C18 diacid = O=C(O)CCCCCCCCCCCCCCCCC(=O)*; γGlu = O=C(O)[C@H](CCC(=O)[*:2])N[*:1]; AEEA = NCCOCCOCC(=O)O; Aib = CC(C)(N)C(=O)O

How the values were obtained:
human GLP-1 receptor [1] = molecular target: T1, human GLP-1 receptor (human, UniProt P43220 24-463); experiment: cell-based or functional assay
human glucagon receptor [2] = molecular target: T2, human glucagon receptor (human, UniProt P47871 26-477); experiment: cell-based or functional assay
human GLP-1 receptor [3] = molecular target: T1, human GLP-1 receptor; experiment: displacement of [125I]-GLP-1-(7-36)NH2 from BHK membranes with human GLP-1R, SPA, no serum albumin
human glucagon receptor [4] = molecular target: T2, human glucagon receptor; experiment: displacement of [125I]-glucagon from BHK membranes with human glucagon receptor, SPA, no serum albumin

T2 sequence (P47871 26-477): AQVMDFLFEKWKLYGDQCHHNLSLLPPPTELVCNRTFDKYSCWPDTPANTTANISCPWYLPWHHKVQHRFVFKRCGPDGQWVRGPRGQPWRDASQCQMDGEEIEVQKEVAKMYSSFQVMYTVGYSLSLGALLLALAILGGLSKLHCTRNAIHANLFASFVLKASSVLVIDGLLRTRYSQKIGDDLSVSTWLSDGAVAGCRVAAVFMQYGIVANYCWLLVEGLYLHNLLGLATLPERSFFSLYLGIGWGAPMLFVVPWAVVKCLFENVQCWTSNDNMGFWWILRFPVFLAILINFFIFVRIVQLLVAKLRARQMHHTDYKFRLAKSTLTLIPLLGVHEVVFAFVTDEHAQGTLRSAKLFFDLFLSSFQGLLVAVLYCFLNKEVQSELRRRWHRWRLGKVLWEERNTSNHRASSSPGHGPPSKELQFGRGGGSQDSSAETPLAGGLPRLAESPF

Row | Binder | GLP-1R EC50 (pM) [Assay (I)(a)], CRE luciferase reporter, BHK cells (human GLP-1 receptor [1]) [pM] | GlucagonR EC50 (pM), [Assay (I)(b)], CRE luciferase reporter, BHK cells (human glucagon receptor [2]) [pM] | IC50 (human GLP-1 receptor [3]) [nM] | IC50 (human glucagon receptor [4]) [nM]
1 | H[Aib]QGTFTSDLSKYLDLRRARDFVAWLINK([γGlu-γGlu-AEEA-AEEA-γGlu-C18 diacid])-NH2 (N-terminus assumed; SMILES CC[C@H](C)[C@H](NC(=O)[C@H](CC(C)C)NC(=O)[C@H](Cc1c[nH]c2ccccc12)NC(=O)[C@H](C)NC(=O)[C@@H](NC(=O)[C@H](Cc1ccccc1)NC(=O)[C@H](CC(=O)O)NC(=O)[C@H](CCCNC(=N)N)NC(=O)[C@H](C)NC(=O)[C@H](CCCNC(=N)N)NC(=O)[C@H](CCCNC(=N)N)NC(=O)[C@H](CC(C)C)NC(=O)[C@H](CC(=O)O)NC(=O)[C@H](CC(C)C)NC(=O)[C@H](Cc1ccc(O)cc1)NC(=O)[C@H](CCCCN)NC(=O)[C@H](CO)NC(=O)[C@H](CC(C)C)NC(=O)[C@H](CC(=O)O)NC(=O)[C@H](CO)NC(=O)[C@@H](NC(=O)[C@H](Cc1ccccc1)NC(=O)[C@@H](NC(=O)CNC(=O)[C@H](CCC(N)=O)NC(=O)C(C)(C)NC(=O)[C@@H](N)Cc1c[nH]cn1)[C@@H](C)O)[C@@H](C)O)C(C)C)C(=O)N[C@@H](CC(N)=O)C(=O)N[C@@H](CCCCNC(=O)CC[C@H](NC(=O)CC[C@H](NC(=O)COCCOCCNC(=O)COCCOCCNC(=O)CC[C@H](NC(=O)CCCCCCCCCCCCCCCCC(=O)O)C(=O)O)C(=O)O)C(=O)O)C(N)=O) | 3 | 55 | 0.4 | 14
2 | H[Aib]QGTFTSDLSKYLDARRAREFVQWLISK([γGlu-γGlu-AEEA-AEEA-γGlu-C18 diacid])-NH2 (N-terminus assumed; SMILES CC[C@H](C)[C@H](NC(=O)[C@H](CC(C)C)NC(=O)[C@H](Cc1c[nH]c2ccccc12)NC(=O)[C@H](CCC(N)=O)NC(=O)[C@@H](NC(=O)[C@H](Cc1ccccc1)NC(=O)[C@H](CCC(=O)O)NC(=O)[C@H](CCCNC(=N)N)NC(=O)[C@H](C)NC(=O)[C@H](CCCNC(=N)N)NC(=O)[C@H](CCCNC(=N)N)NC(=O)[C@H](C)NC(=O)[C@H](CC(=O)O)NC(=O)[C@H](CC(C)C)NC(=O)[C@H](Cc1ccc(O)cc1)NC(=O)[C@H](CCCCN)NC(=O)[C@H](CO)NC(=O)[C@H](CC(C)C)NC(=O)[C@H](CC(=O)O)NC(=O)[C@H](CO)NC(=O)[C@@H](NC(=O)[C@H](Cc1ccccc1)NC(=O)[C@@H](NC(=O)CNC(=O)[C@H](CCC(N)=O)NC(=O)C(C)(C)NC(=O)[C@@H](N)Cc1c[nH]cn1)[C@@H](C)O)[C@@H](C)O)C(C)C)C(=O)N[C@@H](CO)C(=O)N[C@@H](CCCCNC(=O)CC[C@H](NC(=O)CC[C@H](NC(=O)COCCOCCNC(=O)COCCOCCNC(=O)CC[C@H](NC(=O)CCCCCCCCCCCCCCCCC(=O)O)C(=O)O)C(=O)O)C(=O)O)C(N)=O, also called Chem. 28; Chem 28) | 3 | 36 | 0.2 | 8.6
